The labels stand for the following.
B1: library; a variant is named by its letters at N, in order (parent)
chain: ACATTTGTTGATACAACCATAAAATGATAATTACACCCATAAATTGATAATTATCACACCCANNNNNNNNNNNNNNCTCTGATCATAGTCAGACCAACATTGCTACGACCCGTATTCGCACCGACAC

± gives the standard deviation of the averaged measurements.

Data set [1] covers variants of B1. Description: relative integration efficiency (T-RL orientation) vs wild-type transposon end (log2 (normalized fold change)); transposon end mutated: right end (5 bp flank + 75 bp right end); higher = more efficient transposition. The settings on record: with VchCAST RNA-guided transposition machinery (E. coli BL21(DE3) host, lacZ target). The method, then: (§1)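 Pooled, barcoded VchCAST (Tn6677) mini-transposon donor libraries; each variable transposon-end sequence sits in a fixed pDonor mini-transposon context (10-bp barcode and cargo not included). Left- or right-end libraries were co-transformed with pEffector (TniQ-Cascade, TnsABC, lacZ crRNA, T7, 0.1 mM IPTG) into E. coli BL21(DE3) and grown 18 h at 37 C. T-LR and T-RL junction amplicons were sequenced; output/input barcode fold change was normalised to the mean of four wild-type barcodes and log2-transformed. Two biological replicates; zero-count/undetected variants carry floor values (-10 / -15), censored here. Barcode uncoupling by PCR recombination adds noise.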

The variants in data set [2] derive from B1. Description: relative integration efficiency (T-LR orientation) vs wild-type transposon end (log2 (normalized fold change)); transposon end mutated: right end (5 bp flank + 75 bp right end); higher = more efficient transposition. As to conditions: with VchCAST RNA-guided transposition machinery (E. coli BL21(DE3) host, lacZ target). How it is done:
as §1

In the case of TATATTGATATCTC C59A, the “relative integration efficiency (log2)” value in data set [1] was -0.231 ± 0.072; in data set [2], -0.123 ± 0.17.
On to TAAGTTGATATTGC, for which the “relative integration efficiency (log2)” value in data set [1] was -0.0544 ± 0.061; in data set [2], 0.2 ± 0.074.
For TAAATTGATATTGC T8G the same measures were -5.89 ± 0.83 and -3.6 ± 0.47.
The like results for TAAATTGATATTGC T8A were, in that order, -0.814 ± 0.13 and -1.99 ± 0.69.
With TAAATTGATATTGC T8C, the “relative integration efficiency (log2)” value in data set [1] is -0.808 ± 0.29; in data set [2], -2.19 ± 0.042.
For TAAATTGATATTGC A43T the same measures were -0.127 ± 0.0053 and -0.303 ± 0.3.
On to TAAATTGATATTGC A43G, for which the figures for the “relative integration efficiency (log2)” value in data set [1] and in data set [2] were -0.0412 ± 0.15 and -0.246 ± 0.17, respectively.
For the variant TAAATTGATATTGC A43C, the “relative integration efficiency (log2)” value was -0.127 ± 0.027 in data set [1] and -0.0895 ± 0.24 in data set [2].
The like results for TAAATTGATATTGC T52A were, in that order, -0.149 ± 0.095 and 0.276 ± 0.4.
TAAATTGATATTGC T52C: the “relative integration efficiency (log2)” value was -0.34 ± 0.15 in data set [1] and -0.286 ± 0.39 in data set [2].
For TAAATTGATATTGC T52G the same measures were -0.506 ± 0.15 and -0.16 ± 0.37.
For the variant TAAATTTCGCTTGC, the “relative integration efficiency (log2)” value in data set [1] was -0.702 ± 0.069; in data set [2] it was 2.429 ± 0.022.
Take TTTATTGATATTGC: the “relative integration efficiency (log2)” value in data set [1] turned out to be 0.0323 ± 0.048; in data set [2], 0.91 ± 0.071.
Consider TATTTTGATATTGC, for which the “relative integration efficiency (log2)” value in data set [1] was -0.123 ± 0.052; in data set [2], 0.19 ± 0.27.
On to TAAATTGATTTTGC, for which the “relative integration efficiency (log2)” value in data set [1] was -0.0591 ± 0.014; in data set [2] it was 0.338 ± 0.22.
Turning to TAAATTGATATTGC T40A, the entries for the “relative integration efficiency (log2)” value in data set [1] and in data set [2] were -0.0544 ± 0.14 and -0.355 ± 0.17, respectively.
With TAAATTGATATTGC T40C, the “relative integration efficiency (log2)” value is -0.609 ± 0.017 in data set [1] and -0.859 ± 0.091 in data set [2].
The like results for TAAATTGATATTGC T40G were, in that order, -0.896 ± 0.09 and -1.24 ± 0.71.
With TAAATTGATATTGC T54G, the figures for the “relative integration efficiency (log2)” value in data set [1] and in data set [2] were 0.0616 ± 0.064 and 0.247 ± 0.082, respectively.
The like results for TAAATTGATATTGC T54C were, in that order, -0.0952 ± 0.0069 and -0.015 ± 0.36.
For TAAATTGATATTGC T54A the same measures were -0.338 ± 0.15 and 0.141 ± 0.18.
For TAAATTGATATTGC T9C the same measures were 0.234 ± 0.012 and 0.331 ± 0.42.
TAAATTGATATTGC T9A: the “relative integration efficiency (log2)” value in data set [1] is -0.0594 ± 0.085; in data set [2], -0.234 ± 0.3.
Take TAAATTGATATTGC T9G: the “relative integration efficiency (log2)” value was determined as 0.104 ± 0.038 in data set [1] and 0.0503 ± 0.46 in data set [2].
As for TAAATTGATATTGC A42C, the results for the “relative integration efficiency (log2)” value in data set [1] and in data set [2] were -0.945 ± 0.052 and -0.708 ± 0.35, respectively.
With TAAATTGATATTGC A42T, the “relative integration efficiency (log2)” value in data set [1] is 0.0512 ± 0.029; in data set [2], -0.0993 ± 0.22.
With TAAATTGATATTGC A42G, the “relative integration efficiency (log2)” value was -0.807 ± 0.11 in data set [1] and -1.01 ± 0.016 in data set [2].
The like results for TAAATTGATATTGC T6A were, in that order, -5.81 ± 0.51 and -5.94 ± 1.9.
Regarding TAAATTGATATTGC T6G, the “relative integration efficiency (log2)” value in data set [1] was -6.66 ± 0.074; in data set [2], -5.28 ± 0.39.
TAAATTGATATTGC T6C: the “relative integration efficiency (log2)” value in data set [1] is -1.81 ± 0.2; in data set [2], -2.11 ± 0.46.
TAACGTGATATTGC: the “relative integration efficiency (log2)” value in data set [1] was -0.0871 ± 0.004; in data set [2], 0.67 ± 0.2.
On to TAAATTGATATTTC, for which the “relative integration efficiency (log2)” value in data set [1] is -0.0163 ± 0.045; in data set [2], -0.13 ± 0.15.
Take TAAATTGATATTTA: the “relative integration efficiency (log2)” value in data set [1] was determined as 0.1 ± 0.034; in data set [2], 0.122 ± 0.099.
For TAAATTGATATTGC A58C, the “relative integration efficiency (log2)” value is -0.461 ± 0.11 in data set [1] and 1.05 ± 0.17 in data set [2].
For the variant TAAATTGATATTGC A58G, the “relative integration efficiency (log2)” value in data set [1] is -0.236 ± 0.0068; in data set [2], 1.32 ± 0.19.
As to TAAATTGATATTGC A58T, the figures for the “relative integration efficiency (log2)” value in data set [1] and in data set [2] were -0.281 ± 0.054 and 1.17 ± 0.41, respectively.
The like results for TAAATTGATATTGC G46A were, in that order, -0.369 ± 0.054 and -0.642 ± 0.19.
Turning to TAAATTGATATTGC G46C, the “relative integration efficiency (log2)” value in data set [1] is -0.936 ± 0.067; in data set [2] it was -0.847 ± 0.31.
For TAAATTGATATTGC G46T the same measures were -0.423 ± 0.077 and -0.734 ± 0.14.
As for TAAATTGCGATTGC, the “relative integration efficiency (log2)” value in data set [1] is -0.463 ± 0.06; in data set [2], 1.51 ± 0.028.
In the case of TGAATTGATATTGC, the “relative integration efficiency (log2)” value is -0.596 ± 0.095 in data set [1] and 1.91 ± 0.29 in data set [2].
For TAAATTGATGTTGC the same measures were -0.0405 ± 0.033 and 0.475 ± 0.053.
For TACATTGATATTGC, the figures for the “relative integration efficiency (log2)” value in data set [1] and in data set [2] were -0.674 ± 0.11 and 1.79 ± 0.13, respectively.
On to TAGATTGATATTGC, for which the figures for the “relative integration efficiency (log2)” value in data set [1] and in data set [2] were -0.557 ± 0.12 and 1.925 ± 0.0098, respectively.
For the variant ATTTAACTATAACG A23G, the results for the “relative integration efficiency (log2)” value in data set [1] and in data set [2] were -0.928 ± 0.18 and 2.07 ± 0.26, respectively.
As to ATTTAACTATAACG A23C, the “relative integration efficiency (log2)” value was -1.16 ± 0.088 in data set [1] and 1.98 ± 0.17 in data set [2].
Turning to ATTTAACTATAACG A23T, the entries for the “relative integration efficiency (log2)” value in data set [1] and in data set [2] were -0.809 ± 0.12 and 1.952 ± 0.015, respectively.
For TAAATTGATATTGC T80A the same measures were 0.0921 ± 0.03 and 0.072 ± 0.48.
Regarding TAAATTGATATTGC T80G, the “relative integration efficiency (log2)” value was determined as 0.183 ± 0.047 in data set [1] and 0.0082 ± 0.15 in data set [2].
Take TAAATTGATATTGC T80C: the “relative integration efficiency (log2)” value in data set [1] was -0.0687 ± 0.062; in data set [2], -0.0985 ± 0.41.
The like results for TAAATTGATATTGC C60A were, in that order, -0.462 ± 0.027 and 1.55 ± 0.14.
As to TAAATTGATATTGC C60G, the “relative integration efficiency (log2)” value in data set [1] came out at 0.0119 ± 0.012; in data set [2] it was 0.315 ± 0.03.
TAAATTGATATTGC C60T: the “relative integration efficiency (log2)” value in data set [1] is -0.182 ± 0.028; in data set [2], 0.2 ± 0.2.
For the variant TAAATTGATATTGC C57T, the “relative integration efficiency (log2)” value in data set [1] is -0.204 ± 0.0024; in data set [2], 0.91 ± 0.032.
On to TAAATTGATATTGC C57G, for which the figures for the “relative integration efficiency (log2)” value in data set [1] and in data set [2] were -0.05 ± 0.075 and 1.552 ± 0.015, respectively.
On to TAAATTGATATTGC C57A, for which the “relative integration efficiency (log2)” value is -0.104 ± 0.063 in data set [1] and 0.461 ± 0.12 in data set [2].
On to TAAATTGTAATTGC, for which the entries for the “relative integration efficiency (log2)” value in data set [1] and in data set [2] were -0.121 ± 0.11 and 1.88 ± 0.1, respectively.

(Values after the supplement of paper PMC10201428.)
